In patent WO2013167756A1 one finds EC50 data, which are given here for one substance.

This assay concerns the target CD22 on CD22-positive Raji cells and CD22 positive Ramos cells (human) (UniProt P20273). Briefly: flow cytometry on CD22-positive Raji cells, PE anti-human IgG Fc secondary, four-parameter fit. A general note: A flow cytometer gives signals particle by particle.

The EC50 is the concentration that produces a half-maximal response. A high value points to a less potent agent. Substance “AGC1100, anti-CD22 monoclonal antibody hLL2, also called epratuzumab” came in with an EC50 of 9 nM.
